Laboratory results published in patent US10561712B2, “Treatment of cancer and inhibition of metastasis using hemoglobin beta subunit” (UNIVERSITY OF MARYLAND, BALTIMORE, priority 2014, dated 2020).

Key:
Format in all cases: cell-based
[1] = system: MicroNB cells (human neuroblastoma lung micrometastatic variant, MHH-NB11); test: MTS-based viability assay, MicroNB cells; conditions: 10 μg human HBB, 72 hr, FIG. 3D
Description: (§1) The human neuroblastoma lung micrometastatic (MicroNB) and macrometastatic (MacroNB) variants were generated using a mouse model for human neuroblastoma metastasis (Nevo et al., 2008) from the parental cell lines MHH-NB11 (Pietsch et al., 1988) and SH-SY5Y (Biedler et al., 1978) as detailed here (Edry Botzer et al., 2011), and were maintained in culture as previously described (Nevo et al., 2008). The MicroNB and MacroNB variants were previously designated DisNB and MetNB, respectively (Edry Botzer et al., 2011). Authentication of MicroNB and MacroNB cells was performed by short tandem repeat analysis of DNA using the Type-it Microsatellite PCR Kit (Qiagen, Valencia, Calif.), for the genes published by the American Type Culture Collection (ATCC) (Manassas, Va.). The parental cell line MHH-NB11 was kindly provided by Dr. T. Pietsch (Department of Neuropathology, University of Bonn Medical Center, Bonn, Germany).
(§2) Neuroblastoma cells were seeded (3×10^4 per well) in a 96-well flat-bottomed tissue culture plate. After an incubation of 24 hr, cells were washed and incubated with the relevant factors (detailed in the following sections) diluted in starvation medium (RPMI-1640 containing 5% bovine serum albumin (BSA); Biological Industries, Kibbutz Beit Haemek, Israel; Sigma-Aldrich). Cell viability under normal conditions (starvation medium containing BSA) or after incubation with the relevant factors was monitored after 72 hr using an XTT (XTT cell proliferation kit; Biological Industries) or MTS-based (CellTiter 96® AQueous One Solution Cell Proliferation Assay; Promega) viability assays according to manufacturer instructions. Cells were also counted using the trypan-blue exclusion assay to verify the results obtained by XTT and MTS-based viability assays.
Circular dichroism analysis of human hemoglobin (HB), hemoglobin subunit alpha (HBA) and subunit beta (HBB) indicated a helical structure for all three proteins (FIG. 3C). […] Neuroblastoma cells were seeded (3×10^4 per well) in a 96 well flat-bottomed tissue culture plate. After 24 hr of incubation cells were washed and incubated with human HBB dissolved in starvation medium (RPMI 5% BSA) to the indicated concentrations. Cell viability under normal conditions (starvation medium) or after incubation with human HBB was monitored after an incubation of 72 hr using an MTS-based viability assay (CellTiter 96® AQueous One Solution Cell Proliferation Assay, Promega) according to the manufacturer instructions. Data are means of three independent experiments±SD. Significance was evaluated using Student's t-test for each variant incubated with human HBB compared to incubation with control media (con).

[2] = system: HLMEC (Human lung microvascular endothelial cells); test: Viability of normal cells, HLMEC; conditions: normal lung-residing cell line, data not shown
Description: (§3) The influence of HBB on the viability of the normal lung-residing cell lines HPEC (Human pulmonary endothelial cells) and HLMEC (Human lung microvascular endothelial cells) and on the normal kidney cell line 293T and 293A was examined as well.

[3] = system: MacroNB cells (human neuroblastoma lung macrometastatic variant); test: MTS-based viability assay, MacroNB cells; conditions: 10 μg human HBB, 72 hr, FIG. 3D
Description: as §1
as §2, with “After an incubation of 24 hr, cells were washed and incubated with the relevant factors (detailed in the following sections) diluted in starvation medium (RPMI-1640 containing 5% bovine serum albumin (BSA); Biological Industries, Kibbutz Beit Haemek, Israel; Sigma-Aldrich).” left out
Circular dichroism analysis of human hemoglobin (HB), hemoglobin subunit alpha (HBA) and subunit beta (HBB) indicated a helical structure for all three proteins (FIG. 3C). […] Cell viability under normal conditions (starvation medium) or after incubation with human HBB was monitored after an incubation of 72 hr using an MTS-based viability assay (CellTiter 96® AQueous One Solution Cell Proliferation Assay, Promega) according to the manufacturer instructions. […] Significance was evaluated using Student's t-test for each variant incubated with human HBB compared to incubation with control media (con).

[4] = system: Cyclin D1 expression in MacroNB cells; test: Cyclin D1 expression (western blot), MacroNB cells; conditions: incubated with human HBB, 48 hr; in reference to beta-tubulin; FIG. 4C
Protocol: Lysates of neuroblastoma cells and of mouse organs were resolved on SDS-PAGE after the addition of Laemmli sample buffer, and transferred onto nitrocellulose membrane. The total amount of protein in the lanes was assessed by Ponceau staining prior to blocking of the membrane. The membrane was blocked at room temperature with 3% BSA (Sigma-Aldrich) diluted in TBS-Tween (TBST) for 1 hr. For detection of the target proteins, membranes were incubated with relevant primary antibodies (see “Antibodies”), then washed 3 times×5 min with TBSTX1 and incubated with suitable HRP-conjugated secondary antibodies (see “Antibodies”). Membranes were washed again 5 times×3 min with TBSTX1. […]
Neuroblastoma cells (5×10^6) were plated and after 24 hr cells were incubated for 48 hr with human HBB diluted in starvation medium (RPMI 5% BSA) to a concentration of 10 μg/ml. […] Cyclin D1 expression was calculated in reference to β-tubulin expression in the lane as measured by densitometry using Scion Image software (Scion).
Whole cell lysates of MicroNB and MacroNB cells incubated with human HBB were subjected to western blot analysis and immunostaining. […] Cyclin D1 expression was calculated in reference to beta-tubulin. […] Significance was evaluated using Student's t-test for each analysis after incubation with HBB compared to incubation with control media.

[5] = system: normal kidney cell line 293A; test: Viability of normal cells, 293A; conditions: data not shown
Description: as §3

Substance: HBB: beta subunit of human hemoglobin, 147 amino acids, SEQ ID NO:2, HPLC-purified from native human hemoglobin
- decrease in viability of MicroNB cells [1]: 52%
- influence on the viability of normal cells [2]: did not influence the viability
- decrease in viability of MacroNB cells [3]: 29%
- Cyclin-D1 expression in MacroNB cells [4]: significant decline
- influence on the viability of normal cells [5]: did not influence the viability
